Assay results taken from US20240182941A1, “XYLOSYLATED STEVIOL GLYCOSIDES AND ENZYMATIC METHODS FOR PRODUCTION” (CARGILL, INCORPORATED, priority 2021, published 2024).
Values joined by “and” are separate entries in the source; they are usually repeats but may differ in a detail not shown here. Equal entries are not always repeated.

Experiment: Glycosyltransferase assay of SEQ ID NO:1 homologs and variants (IVTT enzymes) on Reb A
Assay type: biochemical
Conditions: Reb A acceptor; for Activity relative to the activity of SEQ ID NO:1, Glucose: UDP-glucose; for Activity relative to the activity of SEQ ID NO:1, Glucose / Activity relative to the activity of SEQ ID NO:1, Xylose: SEQ ID1 = 100%; for Activity relative to the activity of SEQ ID NO:1, Xylose: UDP-xylose
Protocol: Candidate xylosyltransferase enzymes are produced in vitro using the PURExpress In Vitro Protein Synthesis kit from New England Biolabs (NEB #E6800) according to the manufacturer's instructions, including 250 ng plasmid DNA and the addition of 20 units RNase Inhibitor, Murine (NEB #M0314).
The steviol glycoside (SG) ‘acceptors’ Reb A was tested using 4 glucosyltransferase enzymes (SEQ ID NOs: 1-4) homologous to glucosyltransferases in SG biosynthesis in stevia leaves.
UDP-xylose (98.9% purity) was purchased from BOC Sciences. The activated sugar donors were prepared to 10 mM concentration with 0.05 M tris buffer and stored according to manufacturers' recommendations before use. SG materials were obtained from various sources with 90%+ purities. All SG materials were prepared at 20 mM with 90% DMSO and stored at ambient temperature. Final DMSO concentration in the reaction mixture was 4.5%.
Tris (tris(hydroxymethyl)aminomethane) buffer was prepared at 0.05 M, pH 7.3 and contained 3 mM each of MgCl2 and MnCl2 as co-factors.
Enzymes were produced via in vitro transcription-translation (IVTT) and activities were confirmed using UDP-glucose in a preliminary test. Bioconversion reaction was carried out in a total of 100 μL sealed vials containing the Tris buffer, 0.1 μmoles of SG acceptor, 0.2 μmoles of activated sugar donor, 1 μmoles of sucrose and 2 μg protein of the enzymes. To each vial, buffer, UDP-sugar donor, SG acceptor were added in that order before, finally, the enzymes were added. For each SG donor, a control was included to contain the same amounts of enzymes without UDP-sugar donors. […]
[…] Xylose modification of the -19C(O)-β-Glc residue was confirmed.
Activity of SEQ ID NOs: 2-4 is expressed relative to the activity of SEQ ID NO:1. […] [SEQ ID NO:3 was run more than once in this experiment,]

Activity relative to the activity of SEQ ID NO:1, Glucose (18 hrs)	Activity relative to the activity of SEQ ID NO:1, Glucose (48 hrs)	Activity relative to the activity of SEQ ID NO:1, Glucose (96 hrs)	Activity relative to the activity of SEQ ID NO:1, Xylose (18 hrs)	Activity relative to the activity of SEQ ID NO:1, Xylose (48 hrs)	Activity relative to the activity of SEQ ID NO:1, Xylose (96 hrs)	overall activity relative to SEQ ID NO:1 (Table 8)	Molecule
174%	151%	170%	11.5%	9.68%	10.9%		SEQ ID4: glucosyltransferase enzyme, 25% identity to SEQ ID NO:1 (protein, listed as Lycium barbarum) MGTEVTVHKNTLRVLMFPWLAYGHISPFLNVAKKLVDRGFLIYLCSTAINLKSTIKKIPEKYSDSIQLIELHLPELPELPPHYHTTNGLPPHLNHTLQKALKMSKPNFSKILQNLKPDLVIYDLLQQWAEGVANEQNIPAVKLLTSGAAVLSYFFNLVKKPGVEFPFPAIYLRKNELEKMSELLAQSAKDKEPDGVDPFADGNMQVMLMSTSRIIEAKYIDYFSGLSNWKVVPVGPPVQDPIADDADEMELIDWLGKKDENSTVFVSFGSEYFLSKEDREEIAFGLELSNVNFIWVARFPKGEEQNLEDALPKGFLERIGDRGRVLDKFAPQPRILNHPSTGGFISHCGWNSVMESVDFGVPIIAMPIHLDQPMNARLIVELGVAVEIVRDDYGKIHREEIAEILKDVIAGKSGENLKAKMRDISKNLKSIRDEEMDTAAEELIQLCKNSPKLK
81.5% and 148%	87.1% and 132%	99.1% and 148%	47.1% and 78.1%	51.0% and 78.6%	38.9% and 62.1%		SEQ ID3: glucosyltransferase enzyme, 27% identity to SEQ ID NO:1 (protein, listed as Solanum lycopersicum) MATNLRVLMFPWLAYGHISPFLNIAKQLADRGFLIYLCSTRINLESIIKKIPEKYADSIHLIELQLPELPELPPHYHTTNGLPPHLNPTLHKALKMSKPNFSRILQNLKPDLLIYDVLQPWAEHVANEQNIPAGKLLTSCAAVFSYFFSFRKNPGVEFPFPAIHLPEVEKVKIREILAKEPEEGGRLDEGNKQMMLMCTSRTIEAKYIDYCTELCNWKVVPVGPPFQDLITNDADNKELIDWLGTKHENSTVFVSFGSEYFLSKEDMEEVAFALELSNVNFIWVARFPKGEERNLEDALPKGFLERIGERGRVLDKFAPQPRILNHPSTGGFISHCGWNSAMESIDFGVPIIAMPIHNDQPINAKLMVELGVAVEIVRDDDGKIHRGEIAETLKSVVTGETGEILRAKVREISKNLKSIRDEEMDAVAEELIQLCRNSNKSK

The remaining lines, values behind:

Molecule	Activity relative to the activity of SEQ ID NO:1, Glucose (18 hrs)	Activity relative to the activity of SEQ ID NO:1, Glucose (48 hrs)	Activity relative to the activity of SEQ ID NO:1, Glucose (96 hrs)	Activity relative to the activity of SEQ ID NO:1, Xylose (18 hrs)	Activity relative to the activity of SEQ ID NO:1, Xylose (48 hrs)	Activity relative to the activity of SEQ ID NO:1, Xylose (96 hrs)	overall activity relative to SEQ ID NO:1 (Table 8)
SEQ ID2: glycosyltransferase variant with a single serine to isoleucine change at position 152 relative to SEQ ID NO:1 (protein, listed as Oryza sativa) MDSGYSSSYAAAAGMHVVICPWLAFGHLLPCLDLAQRLASRGHRVSFVSTPRNISRLPPVRPALAPLVAFVALPLPRVEGLPDGAESTNDVPHDRPDMVELHRRAFDGLAAPFSEFLGTACADWVIVDVFHHWAAAAALEHKVPCAMMLLGIAHMIASIADRRLERAETESPAAAGQGRPAAAPTFEVARMKLIRTKGSSGMSLAERFSLTLSRSSLVVGRSCVEFEPETVPLLSTLRGKPITFLGLMPPLHEGRREDGEDATVRWLDAQPAKSVVYVALGSEVPLGVEKVHELALGLELAGTRFLWALRKPTGVSDADLLPAGFEERTRGRGVVATRWVPQMSILAHAAVGAFLTHCGWNSTIEGLMFGHPLIMLPIFGDQGPNARLIEAKNAGLQVARNDGDGSFDREGVAAAIRAVAVEEESSKVFQAKAKKLQEIVADMACHERYIDGFIQQLRSYKD	825%	578%	504%	459%	392%	312%	substantially overall increased activity
SEQ ID1: uridine 5′-diphospho (UDP) glycosyl transferase of 462 amino acids from Oryza sativa Japonica Group (protein, listed as Oryza sativa) MDSGYSSSYAAAAGMHVVICPWLAFGHLLPCLDLAQRLASRGHRVSFVSTPRNISRLPPVRPALAPLVAFVALPLPRVEGLPDGAESTNDVPHDRPDMVELHRRAFDGLAAPFSEFLGTACADWVIVDVFHHWAAAAALEHKVPCAMMLLGSAHMIASIADRRLERAETESPAAAGQGRPAAAPTFEVARMKLIRTKGSSGMSLAERFSLTLSRSSLVVGRSCVEFEPETVPLLSTLRGKPITFLGLMPPLHEGRREDGEDATVRWLDAQPAKSVVYVALGSEVPLGVEKVHELALGLELAGTRFLWALRKPTGVSDADLLPAGFEERTRGRGVVATRWVPQMSILAHAAVGAFLTHCGWNSTIEGLMFGHPLIMLPIFGDQGPNARLIEAKNAGLQVARNDGDGSFDREGVAAAIRAVAVEEESSKVFQAKAKKLQEIVADMACHERYIDGFIQQLRSYKD	100%	100%	100%	100%	100%	100%	
